Measured values from patent publication US20170015742A1 (published 2017).

T1: Human VEGF-A 121 (human, UniProt P15692 207-395)
T1 construct: also called hVEGF121
T1 sequence: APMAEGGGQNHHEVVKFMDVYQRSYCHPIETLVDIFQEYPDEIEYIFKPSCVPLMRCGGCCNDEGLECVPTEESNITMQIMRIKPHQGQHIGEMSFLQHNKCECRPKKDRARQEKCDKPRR

T2: Human VEGF-A 111 (human, UniProt P15692-10 27-137)
T2 construct: not used because the names differ; also called hVEGF111
T2 sequence (looked up): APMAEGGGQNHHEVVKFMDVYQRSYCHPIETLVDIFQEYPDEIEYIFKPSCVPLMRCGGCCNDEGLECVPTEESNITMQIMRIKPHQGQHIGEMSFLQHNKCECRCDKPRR


Legend:
[1] = molecular target: recombinant human VEGF165 (human, UniProt P15692 207-395); assay: cell-based or functional assay
[2] = molecular target: recombinant human PDGF-BB (human, UniProt P01127 82-190); assay: cell-based or functional assay
[3] = molecular target: T3, rat PDGF-B (PR-1645048) (rat, UniProt Q05028 74-182); assay: SPR (Biacore), DVD-Ig captured by anti-human Fc, antigen injected
T3 construct: Lot 2235300; also called rat PDGF-BB; ratPDGF-BB
Description: (§1) Unreacted moieties on the biosensor surface were blocked with ethanolamine. For kinetic analysis, rate equations derived from the 1:1 Langmuir binding model were fitted simultaneously to multiple antigen injections (using global fit analysis) with the use of Scrubber 2 (BioLogic Software), Biacore Biaevaluation 4.0.1 software or Biacore T100 Evaluation software. Purified antibodies or DVD-Ig molecules were diluted in running buffer for capture across goat anti-human Fc reaction surfaces. Antibodies or DVD-Ig molecules to be captured as a ligand (1 μg/ml) were injected over reaction matrices at a flow rate of 10 μl/minute. During the assay, all measurements were referenced against the capture surface alone (i.e., with no captured antibody or DVD-Ig molecule). […] The equilibrium dissociation constant KD (M) of the reaction between antibodies and the target antigen was then calculated from the kinetic rate constants by the following formula: KD=Koff/Kₒₙ. Binding was recorded as a function of time and kinetic rate constants were calculated. In this assay, on-rates as fast as 10⁶M⁻¹s⁻¹ and off-rates as slow as 10⁻⁶ s⁻¹ could be measured.

[4] = molecular target: T1, Human VEGF-A 121; assay: SPR (Biacore), summary table
Description: as §1

[5] = molecular target: T4, Human VEGF-A 165 (human, UniProt P15692 207-395); assay: SPR (Biacore), summary table
T4 construct: also called hVEGF165
Description: as §1

[6] = molecular target: T5, Human PDGF-BB, soluble (human, UniProt P01127 82-190); assay: SPR (Biacore), summary table
T5 construct: also called hPDGF-BB; soluble PDGF-BB
Description: as §1

[7] = molecular target: T2, Human VEGF-A 111; assay: SPR (Biacore), summary table
Description: as §1

T3 sequence (Q05028 74-182 limits assumed): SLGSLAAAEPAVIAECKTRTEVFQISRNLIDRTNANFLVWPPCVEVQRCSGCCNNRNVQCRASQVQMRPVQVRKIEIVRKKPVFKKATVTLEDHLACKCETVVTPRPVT
T5 sequence (P01127 82-190 limits assumed): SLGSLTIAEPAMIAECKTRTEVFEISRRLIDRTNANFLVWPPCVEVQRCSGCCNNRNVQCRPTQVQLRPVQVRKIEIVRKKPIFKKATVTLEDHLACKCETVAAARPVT
recombinant human PDGF-BB, sequence (P01127 82-190 limits assumed): as above

Binder | Potency IC50 (pM), Human VEGF-A, cellular assay [1] [pM] | Potency IC50 (pM), Human PDGF-BB, cellular assay [2] [pM] | Kd [3] [pM] | koff [3] [s⁻¹] | kon [3] [M⁻¹ s⁻¹] | Kd [4] [pM] | Kd [5] [pM] | Kd [6] [pM] | Kd [7] [pM]
hu VEGF 9E10.1-GS-hu PDGF 33675 [hu IgG1/k] LALA H435A (PR-1610561) (bispecific antibody) heavy: EIQLVQSGSELKKPGASVKVSCKASGYTFTNYGMYWVKQAPGQGLEYMGWIDTETGRPTYADDFKGRFVFSLDTSVSTAYLQISSLKAEDTAVYFCARWSGDTTGIRGPWFAYWGQGTLVTVSSGGGGSGGGGSEVTLRESGPALVKPTQTLTLTCTFSGFSLSTYGMGVGWIRQPPGKALEWLANIWWDDDKYYNPSLKNRLTISKDTSKNQVVLTMTNMDPVDTATYYCARIESSGPKYSFDYWGQGTMVTVSSASTKGPSVFPLAPSSKSTSGGTAALGCLVKDYFPEPVTVSWNSGALTSGVHTFPAVLQSSGLYSLSSVVTVPSSSLGTQTYICNVNHKPSNTKVDKKVEPKSCDKTHTCPPCPAPEAAGGPSVFLFPPKPKDTLMISRTPEVTCVVVDVSHEDPEVKFNWYVDGVEVHNAKTKPREEQYNSTYRVVSVLTVLHQDWLNGKEYKCKVSNKALPAPIEKTISKAKGQPREPQVYTLPPSREEMTKNQVSLTCLVKGFYPSDIAVEWESNGQPENNYKTTPPVLDSDGSFFLYSKLTVDKSRWQQGNVFSCSVMHEALHNAYTQKSLSLSPGK light: DIRMTQSPSSLSASVGDRVTIECLASEDIYSDLAWYQQKPGKSPKLLIYNANGLQNGVPSRFSGSGSGTDYSLTISSLQPEDVATYFCQQYNYFPGTFGQGTKLEIKGGSGGGGSGGEIVLTQSPGTLSLSPGERATLSCRASSGSIWYSFVSWYQQKPGQAPRLLIYADDQRASGIPDRFSGSGSGTDFTLTISRLEPEDFAVYYCQSYGINIDVVFGGGTKVEIKRTVAAPSVFIFPPSDEQLKSGTASVVCLLNNFYPREAKVQWKVDNALQSGNSQESVTEQDSKDSTYSLSSTLTLSKADYEKHKVYACEVTHQGLSSPVTKSFNRGEC | 145 | 34 |  |  |  |  |  |  | 
9E10.1-GS-33675 anti-VEGF/anti-PDGF DVD-Ig molecule (PR-1610561) (bispecific antibody, human IgG1, kappa, L234A L235A, DVD-Ig: outer domain hBEW-9E10.1 (VEGF), inner domain CL-33675 (PDGF), linkers GS-H10 / GS-L10(dR); human IgG1 L234A, L235A, H435A / kappa; Lot 2213329; also called hu VEGF 9E10.1-GS-hu PDGF 33675 [hu IgG1/k]; LALA H435A) heavy: EIQLVQSGSELKKPGASVKVSCKASGYTFTNYGMYWVKQAPGQGLEYMGWIDTETGRPTYADDFKGRFVFSLDTSVSTAYLQISSLKAEDTAVYFCARWSGDTTGIRGPWFAYWGQGTLVTVSSGGGGSGGGGSEVTLRESGPALVKPTQTLTLTCTFSGFSLSTYGMGVGWIRQPPGKALEWLANIWWDDDKYYNPSLKNRLTISKDTSKNQVVLTMTNMDPVDTATYYCARIESSGPKYSFDYWGQGTMVTVSSASTKGPSVFPLAPSSKSTSGGTAALGCLVKDYFPEPVTVSWNSGALTSGVHTFPAVLQSSGLYSLSSVVTVPSSSLGTQTYICNVNHKPSNTKVDKKVEPKSCDKTHTCPPCPAPEAAGGPSVFLFPPKPKDTLMISRTPEVTCVVVDVSHEDPEVKFNWYVDGVEVHNAKTKPREEQYNSTYRVVSVLTVLHQDWLNGKEYKCKVSNKALPAPIEKTISKAKGQPREPQVYTLPPSREEMTKNQVSLTCLVKGFYPSDIAVEWESNGQPENNYKTTPPVLDSDGSFFLYSKLTVDKSRWQQGNVFSCSVMHEALHNAYTQKSLSLSPGK light: DIRMTQSPSSLSASVGDRVTIECLASEDIYSDLAWYQQKPGKSPKLLIYNANGLQNGVPSRFSGSGSGTDYSLTISSLQPEDVATYFCQQYNYFPGTFGQGTKLEIKGGSGGGGSGGEIVLTQSPGTLSLSPGERATLSCRASSGSIWYSFVSWYQQKPGQAPRLLIYADDQRASGIPDRFSGSGSGTDFTLTISRLEPEDFAVYYCQSYGINIDVVFGGGTKVEIKRTVAAPSVFIFPPSDEQLKSGTASVVCLLNNFYPREAKVQWKVDNALQSGNSQESVTEQDSKDSTYSLSSTLTLSKADYEKHKVYACEVTHQGLSSPVTKSFNRGEC |  |  | ≤ 5.2 | 5.2e-05 | ≥ 1e+07 | 230 | 65 | 5 | 290
